We go through one substance from US20140288003A1.

For the test, the target named is Smad3. Nature of the test: cell-based or functional assay.

For the substance “scleraxis (mouse Scx expressed from pECE-HA-FLAG-Scx) (from UniProt Q64124 1-207)”, the activation of the collagen 1α2 proximal promoter (luciferase assay, NIH 3T3 fibroblasts co-transfected with Scx and Smad3) stood at 35 % increase.
